Assay results from patent publication WO1995033832A1.

Columns and labels:
[1] = target: recombinant Hepatitis B virus surface antigen (HBsAg) (Hepatitis B virus); assay: immunoaffinity column, scFv on Sepharose CL-4B; Expt. 2, pure HBsAg, 2 mg loaded
[2] = target: recombinant Hepatitis B virus surface antigen (HBsAg) (Hepatitis B virus); assay: immunoaffinity column, scFv on Sepharose CL-4B; Expt. 6, crude semipurified HBsAg, 2 mg loaded
[3] = target: recombinant Hepatitis B virus surface antigen (HBsAg) (Hepatitis B virus); assay: ELISA; scFv preincubated with HBsAg in solution, molar ratio fragment:antigen 1:0.14; inhibition of binding to coated HBsAg
[4] = target: recombinant Hepatitis B virus surface antigen (HBsAg) (Hepatitis B virus); assay: ELISA, plates coated with recombinant HBsAg 5 ug/ml; renatured and IMAC-purified scFv; detected with rabbit anti-Fab and Protein A-HRP
[5] = target: recombinant Hepatitis B virus surface antigen (HBsAg) (Hepatitis B virus); assay: ELISA; scFv preincubated with HBsAg in solution, molar ratio fragment:antigen 1:3.5; inhibition of binding to coated HBsAg
[6] = target: recombinant Hepatitis B virus surface antigen (HBsAg) (Hepatitis B virus); assay: immunoaffinity column, scFv on Sepharose CL-4B; Expt. 3, pure HBsAg, 2 mg loaded
[7] = target: recombinant Hepatitis B virus surface antigen (HBsAg) (Hepatitis B virus); assay: ELISA on coated recombinant HBsAg
[8] = target: recombinant Hepatitis B virus surface antigen (HBsAg) (Hepatitis B virus); assay: immunoaffinity column, scFv on Sepharose CL-4B; Expt. 4, crude semipurified HBsAg, 2 mg loaded
[9] = target: recombinant Hepatitis B virus surface antigen (HBsAg) (Hepatitis B virus); assay: ELISA; scFv preincubated with HBsAg in solution, molar ratio fragment:antigen 1:0.7; inhibition of binding to coated HBsAg
[10] = target: recombinant Hepatitis B virus surface antigen (HBsAg) (Hepatitis B virus); assay: immunoaffinity column, scFv on Sepharose CL-4B; Expt. 1, pure HBsAg, 2 mg loaded
[11] = target: recombinant Hepatitis B virus surface antigen (HBsAg) (Hepatitis B virus); assay: scFv on Sepharose CL-4B; saturating pure HBsAg applied, eluted with 3 M KSCN (gel without ligand: 0.012 mg)
[12] = target: recombinant Hepatitis B virus surface antigen (HBsAg) (Hepatitis B virus); assay: immunoaffinity column, scFv on Sepharose CL-4B; Expt. 5, crude semipurified HBsAg, 2 mg loaded
[13] = target: recombinant Hepatitis B virus surface antigen (HBsAg) (Hepatitis B virus); assay: ELISA, plates coated with recombinant HBsAg 5 ug/ml; renatured scFv, not purified; detected with rabbit anti-Fab and Protein A-HRP
[14] = target: recombinant Hepatitis B virus surface antigen (HBsAg) (Hepatitis B virus); assay: ELISA; scFv without HBsAg in solution, molar ratio fragment:antigen 1:0 (reference)

- mg HBsAg eluted/ml gel (mg HBsAg eluted/ml gel) [1]: 0.34
- mg HBsAg eluted/ml gel (mg HBsAg eluted/ml gel) [2]: 0.42
- % inhibition [3]: 12.8%
- Absorbance at 492 nm (absorbance at 492 nm) [4]: 0.68
- % inhibition [5]: 95.1%
- mg HBsAg eluted/ml gel (mg HBsAg eluted/ml gel) [6]: 0.51
- optimal binding concentration (saturation) [7]: 37 µg/mL
- mg HBsAg eluted/ml gel (mg HBsAg eluted/ml gel) [8]: 0.45
- % inhibition [9]: 76.4%
- mg HBsAg eluted/ml gel (mg HBsAg eluted/ml gel) [10]: 0.54
- Amount of eluted HBsAg [11]: 0.126 mg
- mg HBsAg eluted/ml gel (mg HBsAg eluted/ml gel) [12]: 0.26
- Absorbance at 492 nm (absorbance at 492 nm) [13]: 1.54
- % inhibition [14]: 0%
Substance: anti-HBsAg scFv (recombinant single chain Fv antibody fragment, VH-linker-VL, from MAb CB-Hep.1, expressed in E. coli from pPACIB.1/scFv anti HBsAg)
